Earlier results on one substance are cited in PMC3971948.

The target of the data set is Asp85 (UniProt position 98, WAQYADWLFTT). The note with it: Initial unphotolysed BR state of the R82Q mutant.

“Bacteriorhodopsin R82Q (Halobacterium salinarum; R82Q)”: the pKa result is on record as “up to ∼7”.
